Results published in patent US20190233522A1, “NEW DOSAGE REGIMENS FOR ANTIBODY DRUG CONJUGATES BASED ON ANTI-AXL ANTIBODIES” (GENMAB A/S, priority 2016, published 2019).
Changes are numbered by the printed parent chain. Numbers in names are those of the source.

B1: IgG1-AXL-511-vcMMAE: anti-AXL antibody 511 (VH SEQ ID No 136, VL SEQ ID No 140) conjugated to vcMMAE (conjugate)
VH: EVQLLESGGGLVQPGGSLRLSCAASGFTFSSYAMNWVRQAPGKGLEWVSGISGSGGHTYHADSVKGRFTISRDNSKNTLYLQMNSLRAEDTAVYYCAKDRYDILTGYYNLLDYWGQGTLVTVSS
VL: DIQMTQSPSSLSASVGDRVTITCRASQGISSWLAWYQQKPEEAPKSLIYAASSLQSGVPSRFSGSGSGTDFTLTISSLQPEDFATYYCQQYNSYPLTFGGGAKVEIK
modifications: vc-MMAE conjugate; homo sapiens
B2: IgG1-AXL-183-N52Q-vcMMAE: anti-AXL antibody 183-N52Q (VH SEQ ID No 17, VL SEQ ID No 18) conjugated to vcMMAE (conjugate)
VH: QVQLQQWGAGLLKPSETLSLTCAVYGGSFSGYYWSWIRQPPGKGLEWIGEIQQSGSTNYNPSLKSRVTISVDTSKNQFSLKLSSVTAADTSVYYCASGNWDHFFDYWGQGTLVTVSS
VL: DIQMTQSPSSVSASVGDRVTITCRASQGISSWLAWYQHKPGKAPKLLIYATSSLQSGVTSRFSGSGSGTDFTLTISSLQPEDFATYYCQQAKSFPWTFGQGTKVEIK
modifications: vc-MMAE conjugate; homo sapiens
B3: IgG1-AXL-726-M101L-vcMMAE: anti-AXL antibody 726-M101L (VH SEQ ID No 32, VL SEQ ID No 33) conjugated to vcMMAE (conjugate)
VH: QVQLQQWGAGLLKPSETLSLTCAIDGGSFSGYYWSWIRQPPGKGLEWIGEISHSGRTNYNPSLKSRVTISIDTSKNQFSLKLSSVAAADTAVYYCARFITLIRGAIITHFDYWGQGALVTVSS
VL: B1 VL with E42K, N92H, L96Y, G100Q, A102T, V104L
modifications: vc-MMAE conjugate; homo sapiens

Test system: LCLC-103H xenograft tumors
Test: Therapeutic treatment of SC LCLC-103H tumor xenografts (Example 3)
Type: in vivo, SCID mice
Conditions: day 30, One Way ANOVA (Dunnett's), 1 mg/kg single i.p.
Method: The in vivo efficacy of MMAE-conjugated anti-AXL antibodies was determined in established subcutaneous (SC) LCLC-103H xenograft tumors in SCID mice. 5×10^6 LCLC-103H (large cell lung carcinoma) tumor cells (obtained from Leibniz-Institut DSMZ-Deutsche Sammlung von Mikroorganismen and Zellkulturen GmbH (DSMZ)) in 200 μL PBS were injected subcutaneously in the right flank of female SCID mice. Starting 14-21 days after tumor cell inoculation, when the average tumor size was >100-200 mm^3 and distinct tumor growth was observed, a single injection with 1 mg/kg (20 μg/mouse) IgG1-AXL-vcMMAE antibodies or control (unconjugated IgG1-b12) was given intraperitoneally (100 μL/mouse). Tumor volume was determined at least two times per week. Tumor volumes (mm^3) were calculated from caliper (PLEXX) measurements as: 0.52×(length)×(width)^2.

Row | Molecule | tumor volume versus control IgG1-b12
1 | B1 | significant tumor growth inhibition
2 | B2 | not significant affected
3 | B3 | not significant affected

Same assay, conditions: single i.p. injection 1 mg/kg, SCID mice

Row | Molecule | anti-tumor activity in established SC LCLC-103H tumors
4 | B1 | induced tumor growth inhibition
5 | B2 | no or only minor tumor growth inhibition
6 | B3 | no or only minor tumor growth inhibition
